We go through three molecules from article PMC11272940, “UNC-45 assisted myosin folding depends on a conserved FX3HY motif implicated in Freeman Sheldon Syndrome” (Nature Communications, 2024).

To fix the notation:
B1: Full length C. elegans UNC-45 (from E. coli) (natural protein, UniProt G5EG62 1-961, looked up)
chain: MVARVQTAEEIRDEGNAAVKDQDYIKADELYTEALQLTTDEDKALRPVLYRNRAMARLKRDDFEGAQSDCTKALEFDGADVKALFRRSLAREQLGNVGPAFQDAKEALRLSPNDKGIVEVLQRLVKANNDKIKQTTSLANKVTDMEKLAFRGEAKDTEQKMTALNNLLVLCRESESGATGVWNQGALVPFVLNLINDASENEEVTVTAIRILDETIKNSVRCMKFLAMHDPDGPKSVRFVCRLMCKKSTKDFVDATGILVQRVFNAMAKMDRQKEMKPDPEVAEANKIWIIRVLLELQEMLQDPKVGAVQRETCIDLFLKNLMHMDGGIPRGWSWKFVEERGLLALLDVASQIPELCEYPVSAETRQHVAICLQRLEEDMVFDTKRTIFKEKVDMFFNALISRCTNDDEGHKYRIKLSCFLITMLQGPVDIGINLITNDQLTPIMLEMAASQDHLMQGIAAELIVATVSKHERAINMLKVGIPVLRALYDSEDPTVKVRALVGLCKIGAAGGDDISKATMKEEAVISLAKTCKKFLLETEKYSVDIRRYACEGLSYLSLDADVKEWIVDDSLLLKALVLLAKKAGALCVYTLATIYANLSNAFEKPKVDEEMVKLAQFAKHHVPETHPKDTEEYVEKRVRALVEEGAVPACVAVSKTESKNALELIARSLLAFAEYEDLRGRIIAEGGTVLCLRLTKEASGEGKIKAGHAIAKLGAKADPMISFPGQRAYEVVKPLCDLLHPDVEGKANYDSLLTLTNLASVSDSIRGRILKEKAIPKIEEFWFMTDHEHLRAAAAELLLNLLFFEKFYEETVAPGTDRLKLWVLYSAEVEEERLSRASAAGFAILTEDENACARIMDEIKSWPEVFKDIAMHEDAETQRRGLMGIANIMHSSNKLCSEIVSSEVFRVLVAVTKLGTINQERAGSTEQAKRGLEAAEKFGLIKATDREIYERENQMSTIQE
notes: UNC-45 chaperone, C. elegans; The C-terminal Strep tag is stated for the peptide spot assay; also called wildtype UNC-45; purified UNC-45; source: E. coli, purified (HisTrap or StrepTrap, SEC); not shown: Strep, C-terminal, kept

Data set [1] has as its target T1, 547–588 myosin peptide (MHC-B) (C. elegans, UniProt P02566 547-588).
T1 construct: also called native peptide; identified myosin ligand; source: synthetic peptide
T1 peptide (looked up): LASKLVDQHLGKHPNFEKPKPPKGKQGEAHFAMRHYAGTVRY
The experiment in a line: thermal shift assay; 1 μM UNC-45 or UNC-45 ΔUCS, 2 mM peptide, SYPRO Orange, 20 mM HEPES pH 8.0, 150 mM NaCl; triplicates. The conditions noted are these: both partners purified.

Data set [2] addresses T2, Kluyveromyces lactis SHE4, wildtype (Kluyveromyces lactis).
T2 chain: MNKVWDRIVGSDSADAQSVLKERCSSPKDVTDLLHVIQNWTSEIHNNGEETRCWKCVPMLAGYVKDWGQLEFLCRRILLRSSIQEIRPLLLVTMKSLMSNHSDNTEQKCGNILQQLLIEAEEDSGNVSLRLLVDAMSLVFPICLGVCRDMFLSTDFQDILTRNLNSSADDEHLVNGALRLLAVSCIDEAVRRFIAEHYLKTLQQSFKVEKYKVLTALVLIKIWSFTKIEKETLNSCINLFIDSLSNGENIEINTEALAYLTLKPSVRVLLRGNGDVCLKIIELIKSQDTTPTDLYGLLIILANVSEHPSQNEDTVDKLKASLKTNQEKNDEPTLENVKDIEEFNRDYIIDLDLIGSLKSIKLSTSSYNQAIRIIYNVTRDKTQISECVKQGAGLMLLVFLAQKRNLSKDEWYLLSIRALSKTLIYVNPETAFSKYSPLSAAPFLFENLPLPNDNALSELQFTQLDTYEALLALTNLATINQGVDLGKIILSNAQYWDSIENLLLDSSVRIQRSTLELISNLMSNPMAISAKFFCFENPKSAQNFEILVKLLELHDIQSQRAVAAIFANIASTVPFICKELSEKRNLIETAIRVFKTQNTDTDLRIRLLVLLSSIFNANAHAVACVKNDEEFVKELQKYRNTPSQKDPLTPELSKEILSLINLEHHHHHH
The experiment in a line: ITC; 25 °C, VP-ITC; 10 μM SHE4 in the cell, 90 μM (N475A: 107 μM) peptide in the syringe; 10 mM HEPES pH 8.0, 150 mM NaCl, 1 mM TCEP; single site model. As to conditions: both partners purified. (In general: Isothermal titration calorimetry measures the heat released or taken up as one component is titrated into another.)

The target in data set [3] is T3, C. elegans UNC-45 (co-expressed with the MHC-B motor domain in insect cells) (C. elegans, UniProt G5EG62 1-961).
T3 construct: UNC-45 chaperone, C. elegans; also called UNC-45 WT; wildtype UNC-45; source: High Five insect cells, baculovirus, co-expressed with myosin; purified as a complex (HisTrap, Strep-Tactin, SEC); in cleared lysate in the solubility assay
T3 sequence: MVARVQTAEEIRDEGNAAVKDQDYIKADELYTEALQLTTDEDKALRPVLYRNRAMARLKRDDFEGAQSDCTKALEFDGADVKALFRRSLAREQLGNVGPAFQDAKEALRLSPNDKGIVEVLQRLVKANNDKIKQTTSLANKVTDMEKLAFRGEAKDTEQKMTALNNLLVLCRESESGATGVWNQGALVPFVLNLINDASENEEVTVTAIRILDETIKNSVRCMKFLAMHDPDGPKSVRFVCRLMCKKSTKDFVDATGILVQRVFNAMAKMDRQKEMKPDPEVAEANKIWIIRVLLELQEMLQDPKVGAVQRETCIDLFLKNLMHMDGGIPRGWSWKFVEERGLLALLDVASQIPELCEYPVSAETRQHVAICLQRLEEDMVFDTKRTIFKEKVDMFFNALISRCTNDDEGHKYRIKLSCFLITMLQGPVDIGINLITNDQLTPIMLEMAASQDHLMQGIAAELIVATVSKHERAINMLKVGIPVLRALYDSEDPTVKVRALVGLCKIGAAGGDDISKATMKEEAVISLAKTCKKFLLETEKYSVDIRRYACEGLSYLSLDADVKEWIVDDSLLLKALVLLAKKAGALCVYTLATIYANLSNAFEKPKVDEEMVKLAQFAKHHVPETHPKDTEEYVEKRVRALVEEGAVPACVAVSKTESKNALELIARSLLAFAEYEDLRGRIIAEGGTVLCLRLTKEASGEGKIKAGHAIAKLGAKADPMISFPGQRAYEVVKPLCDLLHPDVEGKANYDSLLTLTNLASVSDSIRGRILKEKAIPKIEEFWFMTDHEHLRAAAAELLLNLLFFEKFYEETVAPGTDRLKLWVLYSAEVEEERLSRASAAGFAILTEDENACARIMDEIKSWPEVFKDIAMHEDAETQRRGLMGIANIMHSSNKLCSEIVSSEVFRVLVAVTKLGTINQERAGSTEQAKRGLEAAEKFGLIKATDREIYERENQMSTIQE
In words: tandem affinity co-purification + SEC; co-expressed in insect cells; HisTrap (myosin) then Strep-Tactin (UNC-45), then Superdex 200 in 20 mM HEPES pH 8.0, 150 mM NaCl. As to conditions: partners not purified.

The target of data set [4] is B1. The experiment in a line: cross-linking; XL-MS of the in vitro reconstituted UFD-2:UNC-45:myo^UF complex; 0.25 mM DSS, 20 mM HEPES pH 8.0, 150 mM NaCl, 25 °C, 30 min. The conditions noted are these: both partners purified.

For the molecule B1, the “increase of melting temperature (Tm)” value in data set [1] was 5.5 °C.

B2: Myo4 peptide (residues 561–573) (peptide)
peptide: WKFIVSHYAVDVEY
notes: tryptophan introduced at the N-terminus for peptide quantification; also called myosin peptide; core of the myosin motif; source: synthetic peptide (in-house, HPLC purified)
In general, Kd refers to the free concentration of one partner at which half of the binding sites on the other are occupied at equilibrium, for simple one-to-one binding. Read a low Kd as higher affinity. Molecule B2 came in with a Kd in data set [2] of 600 nM.

B3: C. elegans myosin motor domain MHC-B (1-790), wildtype (domain or fragment, UniProt P02566 1-790, looked up)
chain: MEHEKDPGWQYLRRTREQVLEDQSKPYDSKKNVWIPDPEEGYLAGEITATKGDQVTIVTARGNEVTLKKELVQEMNPPKFEKTEDMSNLSFLNDASVLHNLRSRYAAMLIYTYSGLFCVVINPYKRLPIYTDSCARMFMGKRKTEMPPHLFAVSDEAYRNMLQDHENQSMLITGESGAGKTENTKKVICYFAAVGASQQEGGAEVDPNKKKVTLEDQIVQTNPVLEAFGNAKTVRNNNSSRFGKFIRIHFNKHGRLASCDIEHYLLEKSRVIRQAPGERCYHIFYQIYSDFRPELKKELLLDLPIKDYWFVAQAELIIDGIDDVEEFQLTDEAFDILNFSAVEKQDCYRLMSAHMHMGNMKFKQRPREEQAEPDGTDEAEKASNMYGIGCEEFLKALTKPRVKVGTEWVSKGQNCEQVNWAVGAMAKGLYSRVFNWLVKKCNLTLDQKGIDRDYFIGVLDIAGFEIFDFNSFEQLWINFVNEKLQQFFNHHMFVLEQEEYAREGIQWVFIDFGLDLQACIELIEKPLGIISMLDEECIVPKATDLTLASKLVDQHLGKHPNFEKPKPPKGKQGEAHFAMRHYAGTVRYNCLNWLEKNKDPLNDTVVSAMKQSKGNDLLVEIWQDYTTQEEAAAKAKEGGGGGKKKGKSGSFMTVSMLYRESLNNLMTMLNKTHPHFIRCIIPNEKKQSGMIDAALVLNQLTCNGVLEGIRICRKGFPNRTLHPDFVQRYAILAAKEAKSDDDKKKCAEAIMSKLVNDGSLSEEMFRIGLTKVFFKAGVLAHLEDIRDEKL
notes: MHC-B muscle myosin (Myo4_Cel), C. elegans, motor domain residues 1-790; the state is told by the assay; also called MHC (1-790); Myo4_Cel; source: High Five insect cells, baculovirus; purified (Ni-NTA, SEC) alone or as a complex with UNC-45; not shown: His6, C-terminal, kept
B3: the binding result in data set [3] and in data set [4] was “binds” throughout.
